Source: publication PMC10782996

Experiments:
[1] = system: T1, Spo0A (Paenibacillus polymyxa SC2), ORF:894240d5; assay: EMSA; conditions: EMSA: Beyotime chemiluminescent EMSA kit buffer (composition and pH not stated), 10 uL, 20 min at room temperature, native PAGE in 0.5x TBE, 70 V for 70 min …
T1 sequence: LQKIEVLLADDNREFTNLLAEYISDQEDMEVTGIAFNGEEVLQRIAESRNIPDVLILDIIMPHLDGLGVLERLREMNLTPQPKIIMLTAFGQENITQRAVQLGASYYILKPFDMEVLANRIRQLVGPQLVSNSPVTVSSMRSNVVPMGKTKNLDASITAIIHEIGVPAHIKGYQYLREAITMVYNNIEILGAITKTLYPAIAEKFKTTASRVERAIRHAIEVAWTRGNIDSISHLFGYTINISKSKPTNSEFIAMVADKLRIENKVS

[2] = system: T2, AbrB3 (Paenibacillus polymyxa SC2), ORF:7049d318; assay: EMSA; conditions: EMSA: Beyotime chemiluminescent EMSA kit buffer (composition and pH not stated), 10 uL, 20 min at room temperature, native PAGE in 0.5x TBE, 70 V for 70 min …
T2 sequence: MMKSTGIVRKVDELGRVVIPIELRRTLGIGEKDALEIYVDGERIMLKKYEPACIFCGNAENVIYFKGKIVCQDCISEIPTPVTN

| Sequence | binding [1] | binding [2] |
| --- | --- | --- |
| TGTACTTCCTCCTTATTGAGTGTTATTCCATTGGGACATCTGTTTGCATTAAATAAATATTTCTTGTCGGAGTATATGATTTCGACATCGAATTATGAATTCCTTCTGTCGAAAATTATTTTTATTTATTTTTTTTATTAATTCAATTATAATTGAATTTTTATCTTGCAATTCTGAGTTATTCCCCTGCTTTTCGACAAAAAAATCTTAAGGCCA (double strand) [Pspo0A] | binds | – |
| ATGTAATTCACAGCCCCTTAACGTATATTACTAAAAATTTCTTTGCCAACTAGAATATTGATTCTGAATATATATCGGCAATCCCCTATAATTCCTCAACACGTTTTCCACCATTAAACAAACATATTATGGGAATTACTTGTATACTTTTCAACAGTTTACTTAATATATGCGATTGCTTCTCTAAGCCTATTCTTTTTTATCATAATTATTTAGTATTATAAGGATATAAAAAAGGAGGTTATCAT (double strand) [Pabh] | binds | binds |
